For assay [1], the target named is T1, native VAR2CSA on the surface of NF54 infected erythrocytes (Plasmodium falciparum NF54 (VAR2CSA …, UniProt Q8I639, strain)).
T1 construct: VAR2CSA of the P. falciparum parasite line NF54, native protein on infected erythrocytes; also called VAR2CSA-expressing IE (NF54); source: endogenous, on P. falciparum NF54-infected erythrocytes
Briefly: flow cytometry on cells; late stage VAR2CSA-expressing IE (FCR3, 7201, NF54) incubated with Nb (0,1 mg/ml), 30 min at 4°C; detected with mouse anti-penta-His and FITC anti-mouse; specific recognition defined by an MFI ratio >1.2. The following applies: one partner purified. In general terms: In flow cytometry, cells or beads pass a laser one at a time.

Assay [2] concerns the target T2, VAR2CSA DBL6 domain, baculovirus-produced (Plasmodium falciparum FCR3, UniProt Q6UDW7, strain).
T2 construct: DBL6 domain; also called DBL6ε; source: baculovirus expression system, as described in [11], [20]
Briefly: ELISA; recombinant VAR2CSA protein or domain (50 nM in PBS) coated on MaxiSorp plates overnight at 4°C; Nb 50 nM in 1% skim milk in PBS, 90 min RT; detected with rabbit anti-camel and HRP anti-rabbit, OD 490 nm after 20 min. The following applies: both partners purified. For orientation: An ELISA detects its analyte on a solid surface through an enzyme-linked reagent.

Assay [3] concerns the target T3, full-length VAR2CSA (FV2) recombinant protein, FCR3 (Plasmodium falciparum FCR3, UniProt Q6UDW7, strain).
T3 construct: VAR2CSA (PfEMP1 family), Plasmodium falciparum strain FCR3, full-length recombinant protein; also called FV2-FCR3; source: recombinant, purified, expressed as described in [33]
The assay is described as above. Particulars: both partners purified.

Assay [4] concerns the target T4, VAR2CSA DBL3 domain, baculovirus-produced (Plasmodium falciparum FCR3 (implied), UniProt Q6UDW7, strain).
T4 construct: DBL3 domain; also called DBL3X; source: baculovirus expression system, as described in [11], [20]
The assay is described as above. Particulars: both partners purified.

Assay [5] deals with T5, DBL1-ID2a protein of VAR2CSA (containing minimal CSA-binding region), baculovirus-produced (Plasmodium falciparum FCR3 (assumed for …, UniProt Q6UDW7, strain)).
T5 construct: DBL1-ID2a; source: baculovirus-produced
The assay can be described thus: far-Western, overlay or dot blot; Western blot: recombinant VAR2CSA domain (0,4 µg/lane) run NON-REDUCED on SDS gel, blotted to nitrocellulose, probed with 50 nM Nb in TBST; rabbit anti-camel and HRP anti-rabbit. The following applies: both partners purified. In general terms: A western blot detects proteins with antibodies after separation by electrophoresis.

The target of assay [6] is T6, ID1–ID2a minimal CSA-binding region of VAR2CSA, baculovirus-produced (Plasmodium falciparum FCR3, UniProt Q6UDW7, strain).
T6 construct: VAR2CSA, P. falciparum FCR3; ID1–ID2a region encompassing DBL2X with the flanking parts ID1 and ID2; also called ID1–ID2a (BV); source: baculovirus expression system, as described in [11], [20]
Briefly: ELISA; recombinant VAR2CSA protein or domain (50 nM in PBS) coated on MaxiSorp plates overnight at 4°C; Nb 50 nM in 1% skim milk in PBS, 90 min RT; detected with rabbit anti-camel and HRP anti-rabbit, OD 490 nm after 20 min. Particulars: both partners purified.

Assay [7] deals with T7, ID1–ID2a minimal CSA-binding region of VAR2CSA, produced in E. coli (Plasmodium falciparum FCR3, UniProt Q6UDW7, strain).
T7 construct: ID1–ID2a region; also called ID1–ID2a (coli); source: E. coli
The assay is described as above. The following applies: both partners purified.

Assay [8] concerns the target T2, VAR2CSA DBL6 domain, …. The description is as above. Particulars: both partners purified. This is another data set of the same source.
Assay [9] concerns the target T8, ID1–ID2a minimal CSA-binding region of VAR2CSA, produced in Schneider 2 (S2) cells (Plasmodium falciparum FCR3, UniProt Q6UDW7, strain).
T8 construct: ID1–ID2a region; also called ID1–ID2a (S2); source: Schneider 2 (S2) cells
The assay is described as above. The following applies: both partners purified.

Assay [10] has as its target T9, ID1–ID2a of VAR2CSA of the heterologous 3D7 parasite line (Plasmodium falciparum 3D7, UniProt Q8I639, strain).
T9 construct: VAR2CSA, P. falciparum strain 3D7; also called 3D7 ID1–ID2a; source: baculovirus expression system
The description is as above. Particulars: both partners purified.

In assay [11] the target is T10, DBL1-ID2a of VAR2CSA of the heterologous 3D7 parasite line (Plasmodium falciparum 3D7, UniProt Q8I639, strain).
T10 construct: VAR2CSA, P. falciparum strain 3D7; also called 3D7 DBL1-ID2a; source: baculovirus expression system
The assay is described as above. The following applies: both partners purified.

B1: Nb04 (VHH)
VHH: QVQLQESGGGLAQPGGSLRLSCTASGRIYRMAWFRQAPGKERELVASITHIGATNYADSVKGRFTISRDNFKNTMYLQMNDLKPEDTAVYYCNAASSWGKGTQVTVSS
notes: from an alpaca immunized with full-length VAR2CSA; pHEN6c vector; also called Nanobody 04; VHH; source: E. coli WK6, periplasmic extract, purified (HisTrap); not shown: His6, C-terminal, kept
Consider B1, for which the binding result is given as “binds” in assay [1], “binds” in [2], “binds” in assay [3] and “no binding (tested: 50 nM)” in assay [4].

B2: Nb15 (VHH)
VHH: QVQLQESGGGLVQPGGPLRLSCAASGFTFDNYAMGWFRQAPGKEREFVAAISWSAGTTYYADSVKGRFTISRDNAKNTVSLQMNSLKPEDTAVYYCAAAYDGITMVVEYTNEYEYDYWGQGTQVTVSS
notes: from an alpaca immunized with full-length VAR2CSA; pHEN6c vector; also called Nanobody 15; VHH; source: E. coli WK6, periplasmic extract, purified (HisTrap); not shown: His6, C-terminal, kept
As for B2, the binding result was “binds” in assay [1], “binds” in [2], “binds” in assay [3] and “no binding (tested: 50 nM)” in [4].

B3: Nb09 (VHH)
VHH: QVQLQESGGGLVQAGGSLRLSCAASGRTFSNYGMGWFRQTPEKERDLLAAVTWSGGRTYYADSVKGRFTISRDNAKNTVYLQMNSLKPEDTAVYYCAAGELFYSDYGPEGEWDYWGQGTQVTVSS
notes: from an alpaca immunized with full-length VAR2CSA; pHEN6c vector; also called Nanobody 09; VHH; source: E. coli WK6, periplasmic extract, purified (HisTrap); not shown: His6, C-terminal, kept
On to B3, for which the binding result in assay [5] was “binds”; in assay [1], “binds”; in assay [3], “binds”; in assay [6], “binds”; in assay [4] it was “no binding (tested: 50 nM)”; in assay [7], “binds”. The binding result was “no binding (tested: 50 nM)” in assay [8], “binds” in assay [9], “binds” in assay [10] and “binds” in [11].

B4: Nb08 (VHH)
VHH: QVQLQESGGGLVQPGGSLRLSCVTSGFTLDYYNIGWFRQAPGKEREGVSCISISDGSTYYADSVKGRFTISRDNAKNTVYLQMNSLKPEDTAVYYCAIRLDGSSCDPEEYDYWGQGTQVTVSS
notes: from an alpaca immunized with full-length VAR2CSA; pHEN6c vector; also called Nanobody 08; VHH; source: E. coli WK6, periplasmic extract, purified (HisTrap); not shown: His6, C-terminal, kept
Regarding B4, the binding result is “binds” in assay [1], “binds” in assay [2], “binds” in assay [3] and “no binding (tested: 50 nM)” in [4].

Values taken from PMC3897377, “Utilizing Nanobody Technology to Target Non-Immunodominant Domains of VAR2CSA” (PLoS ONE, 2014).
